Data set [1] has as its target T1, recombinant mouse PrP (Mus musculus, UniProt P04925). Nature of the data set: biochemical. In kind it is binding.
Data set [2] addresses PrP^C and PrP^Sc (Mus musculus, UniProt P04925). In kind it is binding.
For data set [3], the system named is ScN2a cells. The data set is classed as cell-based, murine.
Data set [4] concerns the target PrP (Mus musculus, UniProt P04925). Further details: species or system 129 SvEv mice. Particulars: in vivo.
Data set [5] has as its system PrP^Sc in ScN2a cells.
In data set [6] the target is T1, recombinant mouse PrP. In kind it is binding.
Target sequence in this assay (P04925 23-230 limits assumed): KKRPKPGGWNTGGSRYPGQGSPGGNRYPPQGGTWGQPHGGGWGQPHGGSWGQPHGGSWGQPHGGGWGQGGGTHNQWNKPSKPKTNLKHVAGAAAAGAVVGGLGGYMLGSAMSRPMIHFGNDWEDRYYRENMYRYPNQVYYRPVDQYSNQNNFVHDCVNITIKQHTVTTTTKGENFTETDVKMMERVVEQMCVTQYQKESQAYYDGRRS
The subject of data set [7] is scrapie (RML) prions. Further details: species or system CD1 mice. The conditions noted are these: in vivo.
Data set [8] deals with scrapie (RML) prions. Further details: species or system C57/B6 mice. The conditions noted are these: mouse, in vivo, ip.
Data set [9] deals with MBPAc1-11 T cell receptor transgenic CD4+ T cells. In kind it is cell-based, mouse.
Data set [10] addresses sheep PrP^C and sheep prions (Ovis aries, UniProt P23907).
Data set [11] has as its system prions in treated ScN2a cells. Further details: species or system tg20 mice. The conditions noted are these: mouse, in vivo.
The subject of data set [12] is PrP^Sc in ScN2a cells. This is another data set of the same source.
Data set [13] addresses T1, recombinant mouse PrP.

Entries after “also recorded” stand apart in the source; their conditions may differ. Read-outs that look alike come from different tables or passages of the source. Square brackets hold non-standard residues; d marks the D form. Peptide text beside a SMILES is read from it.

Chain of PrP (P04925 23-230 limits assumed): as above

In general, Kd refers to the concentration at which binding is half-saturated. For `CSCC[C@@H](NC(=O)[C@@H](CC(=O)O)NC(=O)[C@@H](Cc1ccc(O)cc1)NC(=O)[C@@H](Cc1c[nH]c2ccccc12)NC(=O)CN)C(=O)N[C@H](C)C(=O)N[C@H](CC(=O)O)C(=O)N[C@H](CCCNC(=N)N)C(=O)N[C@H](CCC(=O)O)C(=O)N[C@H](Cc1c[nH]c2ccccc12)C(=O)N[C@H](CC(N)=O)C(=O)N[C@H](Cc1c[nH]c2ccccc12)C(=O)N[C@H](CCCNC(=N)N)C(=O)N[C@H](C)C(=O)N[C@H](CS)C(=O)N[C@H](Cc1ccccc1)C(=O)N[C@H](Cc1ccc(O)cc1)C(=O)O` [(D-)riCDR3H, gwydmadrewnwracfy] (H-G[dW][dY][dD][dM][dA][dD][dR][dE][dW][dN][dW][dR][dA][dC][dF][dY]-OH), the Kd in [1] lay within 1000 to 10000 nM. Besides, the “PrP conformer recognized by immunoprecipitation / pull-down” value in data set [2] is “pulled down only PrP^Sc in a conformation-specific manner; also recorded: pulled down only PrP from scrapie-infected homogenates”. In data set [3], the “competition of staining by scFvW226” value is reported as “could be competed by scFvW226” and the “staining pattern of live ScN2a cells” value is reported as “staining all over the cell”. For the same molecule, the “overcoming self tolerance of humoral immune response against PrP” value in [4] was “able to overcome self tolerance of humoral immune response against PrP”. Moreover, in [5], the “antiprion activity (prion clearing) of fragments” value is reported as “reinstated antiprion activity” and the “concentration at which antiprion activity was exhibited” value turned out to be 4 µM.
Take H-YFCARWNWERDAMDYWG-OH [CDR3H]: the “PrP conformer recognized by immunoprecipitation / pull-down” value in data set [2] is given as “conformation-specific recognition of only PrP^Sc; also recorded: pulled down only PrP^Sc in a conformation-specific manner; also recorded: pulled down only PrP from scrapie-infected homogenates”. The “binding by enzyme-linked immunosorbent assay” value in data set [6] was “weak binding to recombinant mouse PrP”. In data set [3], the “competition of staining by scFvW226” value is recorded as “could be competed by scFvW226”, the “digestion by trypsin / protease resistance” value was “could be digested by trypsin” and the “staining pattern of live ScN2a cells” value is on record as “stained only intracellular compartments”. For the same molecule, the “survival of the one surviving immunized mouse” value in data set [7] (ip) was above 10 months. The “protection from prion disease” value in data set [7] (mouse) is recorded as “able to protect from prion disease”. Further, the “average incubation time of the four immunized mice that died” value in [7] (mouse, ip) stood at 205 days. Moreover, in data set [4], the “clones that only recognized the immunogen” value was 8; the “hybridoma secreting mABs recognizing both the immunogen and mouse PrP” value was 28.

B1: mAB W226 (antibody, V domains shown)
VH: EVQLQQSGAELARPGTSVNLSCKTSGYSFTGYGVSWVKQRIGQGLEWIGEIYPRSGNTYYNEKFKGKATLTADKSSNTAYMELRSLTSEDSAVYFCARWNWERDAMDYWGQGTSVTVSSAKTTPPSDYPLA
VL: DIVMTQTPLSLPVSLGDQASISCRSSQSLESSSGYPHLNWYLQKPGQSPQLLIYRVSNRFSGVLDRFSGSGSGTDFTLQISRVEAEDLGVYFCLQITHVPWTFGGGTKLEIKRADAAPTVSAA
For B1, the Kd in data set [1] (read-out: KD) was found to be 0.5 nM. In addition, the “PrP conformer recognized by immunoprecipitation / pull-down” value in data set [2] was “pulls down readily PrP^C from mouse brain homogenates; also recorded: binding to both PrP^C and PrP^Sc was detected”. In data set [8], the survival time result was “significant effect on increasing the survival time” and the weight loss result is “none of the treated mice experienced any weight loss”. The T cell proliferation entry in data set [9] is recorded as “augmented proliferation of Ag-specific T cells; also recorded: increased T cell proliferation”. Further, the “binding of PrP^C from normal sheep homogenate” value in [10] is reported as “weak binding of PrP^C from normal sheep homogenate”.

B2: scFvW226: scFv: variable heavy and light chain domains of W226 connected by (Gly4Ser)3-linker, C-terminal myc- and his6-tags; SEQ ID NO:6 (protein)
scFv: MKYLLPTAAAGLLLLAAQPAMAMAEVQLQQSGAELARPGTSVNLSCKTSGYSFTGYGVSWVKQRIGQGLEWIGEIYPRSGNTYYNEKFKGKATLTADKSSNTAYMELRSLTSEDSAVYFCARWNWERDAMDYWGQGTSVTVSSAKTTPPSDYPLAGGGGSGGGGSGGGGSDIVMTQTPLSLPVSLGDQASISCRSSQSLESSSGYPHLNWYLQKPGQSPQLLIYRVSNRFSGVLDRFSGSGSGTDFTLQISRVEAEDLGVYFCLQITHVPWTFGGGTKLEIKRADAAPTVSAAEEQKLISEEDLEHHHHHH
modifications: C-terminal myc and His6 tags; scFv
As for B2, the “PrP conformer recognized by immunoprecipitation / pull-down” value in data set [2] is “recognizes both PrP^C and PrP^Sc; also recorded: could precipitate both PrP^C and PrP^Sc; also recorded: immunoprecipitated both PrP^C and PrP^Sc”. Further, the “number of sick n/n0” value in [11] was 0/5. Also, in [8], the survival time result was “significant effect on increasing the survival time” and the weight loss result is on record as “none of the treated mice experienced any weight loss”. The T cell proliferation result in data set [9] is “augmented proliferation of Ag-specific T cells; also recorded: increased T cell proliferation”. Besides, in [5], the antiprion activity result is on record as “antiprion active”, the “concentrations with prion-clearing effects” value was above 3.2 nM and the “minimal / smallest effective concentration clearing prions” value is listed as 4 nM. For the same molecule, in [12], the “antiprion effect after transfection into ScN2a cells” value is listed as “clear time-dependent antiprion effect” and the “antiprion effect of conditioned medium of transfected N2a cells” value is given as “prions were cleared”. Further, in [13], the “binding activity to recombinant mouse PrP after heat incubation” value is on record as “retained binding activity” and the “binding activity to recombinant mouse PrP after serum incubation” value was “retained binding activity”.

Values taken from patent publication US8852587B2 (priority 2008, dated 2014).
